From patent publication US20210395344A1 (TWIST BIOSCIENCE, published 2021)
Substitutions are numbered along the chain they refer to.

B1: 1-2 (antibody, V domains shown)
VH: EVQLLESGGGLVQPGGSLRLSCAASGFTFSSQAMSWVRQAPGKGLEWVSAISGSGGGTYYADSVKGRFTISRDNSKNTLYLQMNSLRAEDTAVYYCAKDRRFGEFDPWGQGTLVTVSS
VL: QSALTQPASVSGSPGQSITISCTGTSSGVGSYNLVSWYQQHPGKAPKLMIYEGIKRPSGVSNRFSGSKSGNTASLTISGLQAEDEADYYCCSYAGSSSFVVFGGGTKLTVL
notes: also called variant 1-2
B2: 1-31 (antibody, V domains shown)
VH: EVQLLESGGGLVQPGGSLRLSCAASGFTFSSYAMNWVRQAPGKGLEWVSAISGSGGSTFYADSVKGRFTISRDNSKNTLYLQMNSLRAEDTAVYYCTRPPYGDYGDYWGQGTLVTVSS
VL: B1 VL with G28D, S31K, I54S, K55Q, S97R, S98T, F99P
notes: also called variant 1-31
B3: 1-10 (antibody, V domains shown)
VH: EVQLLESGGGLVQPGGSLRLSCAASGFTFSSYDMSWVRQAPGKGLEWVSVISGSGGSTYYADSVKGRFTISRDNSKNTLYLQMNSLRAEDTAVYYCAKGPLVGWYFDLWGQGTLVTVSS
VL: B1 VL with G28N, I54T
notes: also called variant 1-10
B4: 1-27 (antibody, V domains shown)
VH: EVQLLESGGGLVQPGGSLRLSCAASGFTFSSYAMTWVRQAPGKGLEWVSAISGSGGGTYYADSVKGRFTISRDNSKNTLYLQMNSLRAEDTAVYYCASSSSWQFDYWGQGTLVTVSS
VL: B1 VL with G28Y, S31H, I54S, K55R, S97Y, S98T, F99H, V100Y
notes: also called variant 1-27
B5: 1-47 (antibody, V domains shown)
VH: B1 VH
VL: B1 VL
notes: also called variant 1-47
B6: 1-3 (antibody, V domains shown)
VH: B1 VH
VL: B1 VL with T25I, G28D, I54T
notes: also called variant 1-3
B7: 1-30 (antibody, V domains shown)
VH: B2 VH with N35T
VL: B1 VL with S27R, G28D, I54T, S97R, S98T, F99P
notes: also called variant 1-30
B8: 1-7 (antibody, V domains shown)
VH: B3 VH
VL: B1 VL with G28D, V29F, I54N, S98T
notes: also called variant 1-7
B9: 1-28 (antibody, V domains shown)
VH: B4 VH with A33G, T35S
VL: B1 VL with I54S, K55Q, S98T, F99H, V100Y
notes: also called variant 1-28
B10: 1-5 (antibody, V domains shown)
VH: B1 VH
VL: B1 VL with G53A, I54S, S97Y, S98T, V100A
notes: also called variant 1-5
B11: 1-4 (antibody, V domains shown)
VH: B1 VH
VL: B1 VL with G28D, S31T, I54S, K55Q
notes: also called variant 1-4
B12: 1-23 (antibody, V domains shown)
VH: EVQLLESGGGLVQPGGSLRLSCAASGFTFSSYAISWVRQAPGKGLEWVSIISGSGGSTYYADSVKGRFTISRDNSKNTLYLQMNSLRAEDTAVYYCAREGYRDYLWYFDLWGQGTLVTVSS
VL: QSALTQPASVSGSPGQSITISCTGTSNDVGSYNLVSWYQQHPGKAPKLMIYEGNKRPSGVSNRFSGSKSGNTASLTISGLQAEDEADYYCCSYAGSYTVFGGGTKLTVL
notes: also called variant 1-23
B13: 1-24 (antibody, V domains shown)
VH: B12 VH with I34M, S35N
VL: B12 VL with N27S, S31Y, S96G, Y97S, T98V
notes: also called variant 1-24
B14: 1-29 (antibody, V domains shown)
VH: EVQLLESGGGLVQPGGSLRLSCAASGFTFSSYAMYWVRQAPGKGLEWVSAISGSAGSTYYADSVKGRFTISRDNSKNTLYLQMNSLRAEDTAVYYCARDTNDFWSGYSIFDPWGQGTLVTVSS
VL: QSALTQPASVSGSPGQSITISCTGTSSDIGSYNLVSWYQQHPGKAPKLMIYEGTKRPSGVSNRFSGSKSGNTASLTISGLQAEDEADYYCCSYAGSRTYVFGGGTKLTVL
notes: also called variant 1-29
B15: 1-32 (antibody, V domains shown)
VH: B2 VH with N35Y
VL: QSALTQPASVSGSPGQSITISCTGTSSDVGGYNLVSWYQQHPGKAPKLMIYEGNKRPSGVSNRFSGSKSGNTASLTISGLQAEDEADYYCCSYAGSSTFPVVFGGGTKLTVL
notes: also called variant 1-32
B16: SARS-CoV-2 variant 1-26 (antibody, V domains shown)
VH: EVQLLESGGGLVQPGGSLRLSCAASGFTFSSYAISWVRQAPGKGLEWVSAISGSGYSTYYADSVKGRFTISRDNSKNTLYLQMNSLRAEDTAVYYCARGAPDSSGYYFQGEVYFDYWGQGTLVTVSS
VL: B1 VL with G28D, S31G, I54T, Y93F, A94V, G95R, S98A, F99H
B17: SARS-CoV-2 variant 1-47 (antibody, V domains shown)
VH: B1 VH
VL: B1 VL
B18: SARS-CoV-2 variant 1-27 (antibody, V domains shown)
VH: B4 VH
VL: B1 VL with G28Y, S31H, I54S, K55R, S97Y, S98T, F99H, V100Y
B19: SARS-CoV-2 variant 1-28 (antibody, V domains shown)
VH: B4 VH with A33G, T35S
VL: B1 VL with I54S, K55Q, S98T, F99H, V100Y
B20: SARS-CoV-2 variant 1-21 (antibody, V domains shown)
VH: B12 VH with A33T, I34M
VL: QSALTQPASVSGSPGQSITISCTGTSSDVGSNNLVSWYQQHPGKAPKLMIYEGNKRPSGVSNRFSGSKSGNTASLTISGLQAEDEADYYCCSYAGSVVFGGGTKLTVL
B21: SARS-CoV-2 variant 1-29 (antibody, V domains shown)
VH: B14 VH
VL: B14 VL
B22: SARS-CoV-2 variant 1-8 (antibody, V domains shown)
VH: B3 VH
VL: B14 VL with S27N, I29V, T54S, T98Y, Y99V
B23: SARS-CoV-2 variant 1-37 (antibody, V domains shown)
VH: B2 VH with S30T, S49T
VL: B14 VL
B24: SARS-CoV-2 variant 1-17 (antibody, V domains shown)
VH: B14 VH
VL: B14 VL
B25: SARS-CoV-2 variant 1-42 (antibody, V domains shown)
VH: EVQLLESGGGLVQPGGSLRLSCAASGVTFSSYAMSWVRQAPGKGLEWVSAITGSGGSTYYADSVKGRFTISRDNSKNTLYLQMNSLRAEDTAVYYCAKHGSGTIFGVVIAKYYFDYWGQGTLVTVSS
VL: B14 VL with I29V, S31R, T54G, G95S, R97S, Y99L
B26: SARS-CoV-2 variant 1-41 (antibody, V domains shown)
VH: B3 VH
VL: B14 VL
B27: SARS-CoV-2 variant 1-32 (antibody, V domains shown)
VH: B2 VH with N35Y
VL: B15 VL

molecular target: T1, Acro COVID S1 (S1N-C82E8) (SARS-CoV-2, UniProt P0DTC2 16-685); experiment: phage ELISA
T1 construct: domain: S1

Compared with B1, B2 is higher in “ELISA fold over background” value: 1.8 fold over background for the first, 30.4 fold over background for the second.

Going from B3 to B4, the “ELISA fold over background” value falls from 17.4 fold over background to 1.5 fold over background.

First: B5
Second: B6
The “ELISA fold over background” value of the first is higher: 8.1 fold over background for the first, 1.6 fold over background for the second.

Compared with B7, B8 is lower in “ELISA fold over background” value: 16.8 fold over background for the first, 6.8 fold over background for the second.

Compared with B9, B10 is higher in “ELISA fold over background” value: 1 fold over background for the first, 1.5 fold over background for the second.

First: B11
Second: B12
The “ELISA fold over background” value of the first is lower: 1 fold over background for the first, 5.1 fold over background for the second.

First: B13
Second: B14
The “ELISA fold over background” value of the first is higher: 12.9 fold over background for the first, 1.1 fold over background for the second.

For B15, the “ELISA fold over background” value was 11.5 fold over background.

molecular target: T2, Acro COVID S1 (S1N-C82E8) (SARS-CoV-2, UniProt P0DTC2 16-685); experiment: phage ELISA
T2 construct: domain: S1 (subunit 1)

Going from B16 to B17, the “specificity ELISA, fold over background” value rises from 1.4 fold over background to 8.1 fold over background.

Going from B18 to B19, the “specificity ELISA, fold over background” value falls from 1.5 fold over background to 1 fold over background.

First: B20
Second: B21
The “specificity ELISA, fold over background” value of the first is higher: 19.5 fold over background for the first, 1.1 fold over background for the second.

Going from B22 to B23, the “specificity ELISA, fold over background” value falls from 12 fold over background to 11.6 fold over background.

Going from B24 to B25, the “specificity ELISA, fold over background” value falls from 25.1 fold over background to 22.7 fold over background.

Going from B26 to B27, the “specificity ELISA, fold over background” value rises from 4.5 fold over background to 11.5 fold over background.

molecular target: T1, Acro COVID S1 (S1N-C82E8); experiment: phage ELISA; remark: another data set of the same source

Going from B1 to B2, the “ELISA fold over background” value rises from 1.8 fold over background to 30.4 fold over background.

Going from B3 to B4, the “ELISA fold over background” value falls from 17.4 fold over background to 1.5 fold over background.

Going from B5 to B6, the “ELISA fold over background” value falls from 8.1 fold over background to 1.6 fold over background.

Compared with B7, B8 is lower in “ELISA fold over background” value: 16.8 fold over background for the first, 6.8 fold over background for the second.

Going from B9 to B10, the “ELISA fold over background” value rises from 1 fold over background to 1.5 fold over background.

First: B11
Second: B12
The “ELISA fold over background” value of the first is lower: 1 fold over background for the first, 5.1 fold over background for the second.

First: B13
Second: B14
The “ELISA fold over background” value of the first is higher: 12.9 fold over background for the first, 1.1 fold over background for the second.

With B15 the “ELISA fold over background” value was 11.5 fold over background.
